Data: paper PMC8420576 (The EMBO Journal, 2021)

Biological target: T1, SARS-CoV-2 RBD, B.1.427/B.1.429/Epsilon/Californian variant (L452R) (SARS-CoV-2, Epsilon/Californian …, L452R)
T1 construct: also called Epsilon/Californian RBD mutant; Californian L452R mutation
Test: BLI
Conditions: both partners purified

B1: VHH antibody Re5D06, labeled with two PEG11-biotins (VHH)
VHH: QVQLVESGGGLVQPGGSLRLSCAASGITLDYYAIGWFRQAPGKEREGVSRIRSSDGSTNYADSVKGRFTMSRDNAKNTVYLQMNSLKPEDTAVYYCAYGPLTKYGSSWYWPYEYDYWGQGTQVTVSS
notes: also called Re5D06 (immobilized on BLI sensors)
Q: Which Kd does the source give for B1 here?
A: ~400 pM
